Results: patent US20150266962A1 (Pfizer, published 2015)

B1: chimeric antibody ch07 (antibody, human IgG1, V domains shown)
VH: QVQLKESGPGLVAPSQSLSINCTVSGFSLTKYGVHWIRQSPGKGLEWLGVKWAGGSTDYNSALMSRLTISKDNNKSQVFLKMNSLQSDDSAMYYCARDHRDAMDYWGQGTSVTVSS
VL: QVVLTQSPAIMSASPGERVTMTCTASLSVSSTYLHWYHQKPGSSPKLWIYSTSNLASGVPARFSGSGSGTSYSLTISSMEAEDAATYYCHQYHRSPLTFGSGTKLELK
notes: also called chimeric antibody 07; biotin-ch07 (biotinylated form)
B2: chimeric antibody ch08 (antibody, human IgG1, V domains shown)
VH: EVQLVESGGDLVRPGGSLQLSCAASGFTFSRNGMSWVRQTPDRRLEWVATVSSGGSYIYYADSVKGRFTISRDNARNTLYLQMSSLKSEDTAMYYCARQGTTALATRFFDVWGAGTTVTVSS
VL: DIVMTQSHKFISTSVGDRVSITCKASQDVGTAVAWYQQIPGQSPKLLIYSASYRSTGIPDRFTGSGSGTDFSFIISSVQAEDLALYYCQHHYSAPWTFGGGTTLDIK
notes: also called ch08Hc + Lc; chimeric antibody 08

How the values were obtained:
[1] = target: T1, recombinant human IL-13 receptor alpha 2 (hIL-13-Rα2) (human, UniProt Q14627 27-343); assay: competition ELISA on plate, competitor biotinylated ch07, purified protein
T1 construct: Recombinant soluble antigen coated on ELISA plates or used in Biacore; also called rec hIL-13Rα2; rhIL-13Rα2
T1 sequence (looked up): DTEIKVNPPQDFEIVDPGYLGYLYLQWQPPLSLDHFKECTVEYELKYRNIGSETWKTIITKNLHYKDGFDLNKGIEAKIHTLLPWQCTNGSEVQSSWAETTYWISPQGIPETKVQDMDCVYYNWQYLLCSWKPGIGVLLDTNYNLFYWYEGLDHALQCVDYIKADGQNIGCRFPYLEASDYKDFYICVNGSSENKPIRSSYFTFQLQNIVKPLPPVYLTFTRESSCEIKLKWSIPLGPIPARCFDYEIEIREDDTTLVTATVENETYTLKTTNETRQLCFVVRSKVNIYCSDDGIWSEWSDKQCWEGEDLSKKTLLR

[2] = target: T2, recombinant mouse IL-13-Rα2 (mIL-13-Rα2) (mouse, UniProt O88786 22-334, limits assumed); assay: direct ELISA on coated recombinant mIL-13-Rα2, serially diluted purified ch07
T2 construct: also called murine mIL-13Rα2
T2 sequence (looked up): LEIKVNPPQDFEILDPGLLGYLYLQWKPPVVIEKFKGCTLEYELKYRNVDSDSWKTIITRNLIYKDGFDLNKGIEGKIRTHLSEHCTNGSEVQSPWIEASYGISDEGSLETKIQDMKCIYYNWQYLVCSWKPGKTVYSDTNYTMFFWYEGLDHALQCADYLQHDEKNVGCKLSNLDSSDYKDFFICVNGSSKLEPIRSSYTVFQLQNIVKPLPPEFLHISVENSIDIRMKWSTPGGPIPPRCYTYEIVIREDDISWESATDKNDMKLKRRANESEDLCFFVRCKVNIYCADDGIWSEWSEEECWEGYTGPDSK
Experimental: (§1) The binding of hu07 and hu08 to mouse IL-13-Rα2 was evaluated by direct ELISA. The identity between human and mouse IL-13-Rα2 at the amino acid level is approximately 64%. Recombinant mIL-13-Rα2 or hIL-13-Rα2 (as positive control) was coated onto a 96-well plate. Purified chimeric ch07 and ch08 were serially diluted and added to the antigen coated plate. The bound antibodies were detected by HRP conjugated goat anti-human IgGFc specific secondary antibody.

[3] = target: T1, recombinant human IL-13 receptor alpha …; assay: competition ELISA on plate (recombinant IL-13-Rα2), competitor biotinylated ch07
[4] = target: T1, recombinant human IL-13 receptor alpha …; assay: direct ELISA on rhIL-13Rα2, purified protein (given as ED50)
[5] = target: T1, recombinant human IL-13 receptor alpha …; assay: SPR Biacore, pH 7.4
Experimental: To assess the binding kinetics of the ch07 and ch08 antibodies, SPR (Surface Plasmon Resonance) experiments were conducted on a Biacore® T100 or T200 instrument using a Biacore® human Fab Capture Kit (GE Healthcare). All data was analyzed using the Biacore® T100 evaluation software version 2.0 with a 1:1 Langmuir binding model.
Kₐ, Kd and KD are shown on Table 5. […] At pH6.0, ch07 and ch08 binding affinity to hIL-13-Rα2 are in the low nM range. Dissociation rates of ch08 and ch07 are very similar. Higher KDs at pH6.0 than pH7.4 are due to a slower association rate.

[6] = target: T1, recombinant human IL-13 receptor alpha …; assay: direct ELISA on rhIL-13Rα2 (given as ED50)
[7] = target: T1, recombinant human IL-13 receptor alpha …; assay: standard ELISA on hIL-13-Rα2 (given as ED50)
[8] = target: T1, recombinant human IL-13 receptor alpha …; assay: direct ELISA on coated recombinant hIL-13-Rα2
Experimental: Humanized hu08 binding to recombinant hIL-13-Rα2 was evaluated by a standard direct ELISA. Recombinant hIL-13-Rα2 was coated onto a 96-well plate. Serially diluted chimeric antibodies or humanized antibodies in combinations of heavy and light chains of versions 1.0 and 1.1 e.g. hu08 v1.0 HC/1.0 LC, hu08 v1.0 HC/v1.1 LC, hu08 v1.1 HC/v1.0 LC, and hu08 v1.1 HC/v1.1 LC, were added to the plate and incubated at room temperature for 1-2 hours. The binding was detected by HRP conjugated goat anti-human Ig Kappa.

[9] = target: T2, recombinant mouse IL-13-Rα2 (mIL-13-Rα2); assay: direct ELISA on coated recombinant mIL-13-Rα2, serially diluted purified ch08
Experimental: as §1

[10] = target: T1, recombinant human IL-13 receptor alpha …; assay: competition ELISA on coated recombinant hIL-13-Rα2, competitor biotin-ch08
Experimental: A competition ELISA was performed to assess whether hu08 1.0 and hu08 v1.1 compete with ch08 for IL-13-Rα2 binding. Recombinant hIL-13-Rα2 was coated onto 96-well plates at 50 ul of […] in PBS overnight at 4° C. Plates were then blocked and washed following standard ELISA protocol. A 3-fold serially diluted ch08, hu08 1.0 and hu08 v1.1, and negative control ch07 (2× final concentration) were mixed with biotinylated ch08 (2×EC₅₀). 50 μl of the antibody and biotin-ch08 mixture were added to the plate and incubated for 1 hour at room temperature. The amount of biotin-ch08 bound was detected by HRP conjugated streptavidin.

Row | Binder | IC50 [1] [nM] | binding result [2] | IC50 [3] [nM] | EC50 [4] [nM] | fold slower dissociation than ch08 [5] [fold] | EC50 [6] [nM] | EC50 [7] [nM] | EC50 [8] [nM] | binding result [9] | IC50 [10] [nM]
1 | B1 | 2.21 | no binding | 2.21 | 0.39 | ~2 | 0.217 | 0.1 | – | – | –
2 | B2 | – | – | – | – | – | – | – | 0.152 | no binding | 1.98
